Assay results: patent publication US20250295796A1, “CELL PENETRATING POLYPEPTIDES (CPPS) AND THEIR USE IN HUMAN THERAPY” (RDP PHARMA AG, priority 2021, published 2025)

How the values were obtained:
[1] = test system: HEP3B; assay: Monolayer assay, 96h treatment, HEP3B; format: cell-based, human
Method: (§1) Monolayer Assay Propidium Iodid (PI). Cells were harvested from exponential phase cultures, counted and depending on the cell line 3.000 to 20.000 cells were plated in 96-well flat-bottom microtiter plates After a 24 h recovery period to allow cells to resume exponential growth, 10 μl of culture medium (four control wells/plate) or culture medium with the test compound were added by a liquid handling robotic system and treatment continued for four days. Compounds were applied in half-log increments at 10 concentrations in duplicate. Three independent experiments were performed. Cells were then washed with 200 μl PBS to remove dead cells followed by addition of 200 μl of a solution containing 7 μg/ml propidium iodide (PI) and 0.1% (v/v) Triton X-100. After an incubation period of 1-2 h at room temperature, fluorescence (FU) was measured using the Cytofluor 4000 microplate reader (excitation λ=530 nm, emission λ=620 nm) to quantify the amount of attached viable cells. Concentrations required for 50% inhibition of cell growth (IC50) were calculated by non-linear regression (log[conc. of inhibitor]versus response (% T/C)) using the analysis software GraphPad Prism®, Prism 5 for windows, version 5.01 (GraphPad Software Inc., CA).
(§2) CROMOC36—in vitro activity Human hepatocellular carcinoma cell lines IC50 values of CROMOC36 and Sorafenib, 96h treatment. […]

[2] = test system: LIXF 575L; assay: Monolayer assay, 96h treatment, LIXF 575L; format: cell-based, human
Method: as §1, §2

[3] = test system: IMR32 human neuroblastoma xenograft; assay: IMR32 human neuroblastoma xenograft model; format: in vivo, mice; conditions: q14dx2
From the text: FIG. 11: IMR32 s.c. implanted. Treatment on xenograft mice with advanced tumors (volume >50 mm^3). Variation in tumor volume expressed as percentage with respect to initial volume (day 0; designated as 100%). Final measurements for vehicle (PBS) and Doxorubicin groups were taken on day 42. For the remaining groups, final measurements were taken on day 63, the termination day of the experiment. Growth reduction compared to controls on day 42 (p<0.01).
The aim of this study was to assess the in vivo efficacy of CROMOC36 on a IMR32 human neuroblastoma xenograft model. CROMOC36 was administered subcutaneously (s.c.) at intervals of two weeks (q14dx2) at two different doses (32 mg/Kg) and also in combination with doxorubicin administered intravenously (i.v.) (32/kg CROMOC36+4+4 mg/Kg doxorubicin, s.c and i.v., q14dx2). Doxorubicin was also used alone as a reference compound (8 mg/kg, i.v., q14dx2). Vehicle was PBS.

[4] = test system: PAXF 546L; assay: Propidium iodide monolayer assay, PAXF 546L; format: cell-based, human; conditions: four days
Method: as §1, with “Concentrations required for 50% inhibition of cell growth (IC50) were calculated by non-linear regression (log[conc. of inhibitor]versus response (% T/C)) using the analysis software GraphPad Prism®, Prism 5 for windows, version 5.01 (GraphPad Software Inc., CA).” left out
(§3) CROMOC36—in vitro activity Human pancreatic carcinoma cell lines. […] Antitumor activity was assessed after four days of CROMOC36 treatment using a propidium iodide based monolayer proliferation assay. […]

[5] = test system: lung cancer, ovarian cancer and neuroblastoma and colon cancer cells; assay: SRB assay for 96 hours, cancer cells; format: cell-based; conditions: SRB 96 hours, various cancer cells; read-out: IC50 range
Method: Cells were harvested from exponential phase cultures, and depending on the cell line 10.000 to 30.000 cells were plated in 96-well flat-bottom microtiter plates. After a 24 h recovery period to allow cells to resume exponential growth, supernatant was discarded and 100 μl of culture medium (eight control wells/plate) or culture medium with the test compound were added by a liquid handling robotic system (Microlab® Starlet, Hamilton) and treatment continued for 72 hrs. Compounds were applied at 9 concentrations eight wells/concentration). At least three independent experiments were performed. For SRB staining, cells were fixed with SRB01 for 1h at 4° C. (final concentration of TCA=10%) washed with a plate washer (Hydroflex, Tecan©) for five times with H2O; and stained with 100 μl of SRB02 at room temperature for 10 min following 4 washes in SRB03 and finally 100 μl of developer solution SRB04 for 5 minutes with shaking. Optical density was assessed using a plate-reader (Sunrise, Tecan©) at 540 nm. Concentrations required for 50% inhibition of cell growth (IC50) were calculated by non-linear regression (log[conc. of inhibitor] versus response (% T/C)) using the analysis software GraphPad Prism®, Prism 5 for windows, version 5.01 (GraphPad Software Inc., CA). (SRB Buffers FIG. 25).

[6] = Toxicology experiments and various tumor models, cardiotoxicity; format: in vivo
[7] = test system: HUPT3; assay: Propidium iodide monolayer assay, HUPT3; format: cell-based, human; conditions: HUPT3, four days
Method: as §1, with “Concentrations required for 50% inhibition of cell growth (IC50) were calculated by non-linear regression (log[conc. of inhibitor]versus response (% T/C)) using the analysis software GraphPad Prism®, Prism 5 for windows, version 5.01 (GraphPad Software Inc., CA).” left out
as §3

[8] = test system: PAXF 1657L; assay: Propidium iodide monolayer assay, PAXF 1657L; format: cell-based, human; conditions: four days
Method: as §1, with “Concentrations required for 50% inhibition of cell growth (IC50) were calculated by non-linear regression (log[conc. of inhibitor]versus response (% T/C)) using the analysis software GraphPad Prism®, Prism 5 for windows, version 5.01 (GraphPad Software Inc., CA).” left out
as §3

[9] = test system: HCT116 human colon carcinoma xenograft with null p53 (HCT116 p53−/−); assay: HCT116 p53-/- xenograft, single agent and combination with cisplatin or vincristine; format: in vivo, female athymic nude mice
Method: A study was conducted to evaluate the efficacy and tolerability of CROMOC36 against an HCT116 human colon carcinoma xenograft model with null p53 (HCT116 p53−/−) in female athymic nude mice. CROMOC36 was administered subcutaneously (s.c.) three times at intervals of two weeks (q14dx3) as a single agent or in combination with cisplatin (CDDP) at 4 mg/kg or vincristine (VCR) at 2 mg/kg which were both administered five times at intervals of one week (q7dx5). CROMOC36 was tested at 32 mg/kg or using a decreasing dosage of 32-16-16 mg/kg. CDDP and VCR were also administered as single agents to allow comparison of the efficacy of CROMOC36 with commonly used anticancer drugs. The dose and schedule of CDDP and VCR treatments remained the same when tested as single agents or in combination with CROMOC36. […] Efficacy was also evaluated by measuring the tumor growth delay (TGD) and the number of regression responses.

B1: CROMOC36: single chain PvuII endonuclease fused at its C-terminus to DDM36, PEGylated final product used in the Examples (protein)
chain: MSHPDLNKLLELWPHIQEYQDLALKHGINDIFQDNGGKLLQVLLITGLTVLPGREGNDAVDNAGQEYELKSINIDLTKGFSTHHHMNPVIIAKYRQVPWIFAIYRGIAIEAIYRLEPKDLEFYYDKWERKWYSDGHKDINNPKIPVKYVMEHGTKIYGSGGSGGSSHPDLNKLLELWPHIQEYQDLALKHGINDIFQDNGGKLLQVLLITGLTVLPGREGNDAVDNAGQEYELKSINIDLTKGFSTHHHMNPVIIAKYRQVPWIFAIYRGIAIEAIYRLEPKDLEFYYDKWERKWYSDGHKDINNPKIPVKYVMEHGTKIYGNSGSGKKKKKGKGSGLGSGKKKDPLGSGLGSGKKKKKGKGSGLGSGKKKDPLGST
modifications: PEGylated; peptide, CROMOC36
[1]
  IC50: 12.2 nM
[2]
  IC50: 17 nM
[3]; CROMOC36 32/kg s.c. + doxorubicin 4+4 mg/Kg i.v.
  tumor growth inhibition compared to controls: 89%
[3]; single agent, CROMOC36 32 mg/Kg s.c., doxorubicin 8 mg/kg i.v.
  tumor growth inhibition (TGI) compared to controls: 82%
[4]
  IC50: 6.49 nM
[5]
  IC50: 0.5 to 19 nM
[6]
  cardiotoxic effects: no cardiotoxic effects were observed
[7]
  IC50: ~10 nM
[8]
  IC50: 4.73 nM
[9]; CROMOC36 32 mg/kg s.c. q14dx3, single agent
  tumor growth inhibition: 82.9%
[9]; CROMOC36 32-16-16 mg/kg
  partial regression response: one
  tumor-free survivor: one
[9]; CROMOC36 32-16-16 mg/kg in combination with CDDP or VCR
  tumor growth inhibition with respect to single-agent CROMOC36: did not change significantly
[9]; CROMOC36 32-16-16 mg/kg, single agent or in combination with CDDP or VCR, three weeks after the last treatment
  persistence of inhibitory effect: persisted until day 50
[9]; CROMOC36 decreasing 32-16-16 mg/kg s.c. q14dx3, single agent
  tumor growth inhibition: 91.6%
[9]; endpoint tumor volume of 1000 mm^3, CROMOC36 as single agent or in combination
  % TGD (tumor growth delay): > 117%
[9]; endpoint tumor volume of 1000 mm^3, control Day 23, CROMOC36 as single agent or in combination
  time to study endpoint (TTE): > 50 days
